Experiment: In vitro drug release from melt-extruded rods in isotonic phosphate buffer
Format: physicochemical
Conditions: rod-shaped samples, isotonic phosphate buffer pH 7.4, 37° C.; for Release Rate (ng of free acid Latanoprost/mg polymer drug conjugate/24 hours): continuous stirring, HPLC-UV
Experimental: Following in vitro release guidelines recommended by the International Organisation of Standardisation, rod-shaped samples prepared by melt extrusion, were suspended in wire baskets which were immersed in isotonic phosphate buffer (IPB), adjusted to pH 7.4 using orthophosphoric acid and containing 0.01% sodium azide as a preservative, and incubated at 37° C. with continuous stirring. Aliquots of the receptor solution were removed for analysis at predetermined time points until drug release from the polymer no longer increased.
The amount of prostaglandin drug released from the rods at the various time points was quantified by reverse phase high performance liquid chromatography (HPLC) with a UV absorbance detector and analyte separation was performed on a C18 column either isocratically or with a gradient system using a degassed mobile phase.
Using the above method, the rate of release of the prostaglandin drug latanoprost from various polymer-drug conjugates was determined.

With “Polyurethane of (Z)-3-hydroxy-2-(hydroxymethyl)-2-methylpropyl 7-((1R,2R,3R,5S)-3,5-dihydroxy-2-((R)-3-hydroxy-5-phenylpentyl)cyclopentyl)hept-5-enoate and DVDIP [Example 16]” the “Period of zero-order release” value was 61 days and the “Release Rate (ng of free acid Latanoprost/mg polymer drug conjugate/24 hours)” value was 138 ng of free acid Latanoprost/mg.
In the case of “Polyurethane of (Z)-1,3-dihydroxypropan-2-yl 7-((1R,2R,3R,5S)-3,5-dihydroxy-2-((R)-3-hydroxy-5-phenylpentyl)cyclopentyl)hept-5-enoate and DVDIP [Example 12]”, the “Period of zero-order release” value was 61 days and the “Release Rate (ng of free acid Latanoprost/mg polymer drug conjugate/24 hours)” value was 637 ng of free acid Latanoprost/mg.
In the case of “Polyurethane of (Z)-1,3-dihydroxypropan-2-yl 7-((1R,2R,3R,5S)-3,5-dihydroxy-2-((R)-3-hydroxy-5-phenylpentyl)cyclopentyl)hept-5-enoate and ELDI [Example 10]”, the “Period of zero-order release” value was 61 days and the “Release Rate (ng of free acid Latanoprost/mg polymer drug conjugate/24 hours)” value was 899 ng of free acid Latanoprost/mg.
